In US10919953 (dated 2021):
Like-named read-outs stand apart in the source and are kept apart here.

T1: FcgRIIaR (human, UniProt P12318)
T1 chain: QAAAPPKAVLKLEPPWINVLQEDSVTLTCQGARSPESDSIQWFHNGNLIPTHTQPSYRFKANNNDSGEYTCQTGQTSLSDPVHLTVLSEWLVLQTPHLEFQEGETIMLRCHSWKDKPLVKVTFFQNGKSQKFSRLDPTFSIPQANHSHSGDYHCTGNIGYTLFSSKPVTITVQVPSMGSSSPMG

T2: FcgRIIb (human, UniProt P31994)
T2 chain: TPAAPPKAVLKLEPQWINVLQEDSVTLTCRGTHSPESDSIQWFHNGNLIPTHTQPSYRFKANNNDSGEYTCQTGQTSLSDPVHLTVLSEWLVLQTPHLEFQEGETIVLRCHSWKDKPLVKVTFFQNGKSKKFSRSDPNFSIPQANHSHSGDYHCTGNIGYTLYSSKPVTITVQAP

T3: FcgRIa (human, UniProt P12314)
T3 chain: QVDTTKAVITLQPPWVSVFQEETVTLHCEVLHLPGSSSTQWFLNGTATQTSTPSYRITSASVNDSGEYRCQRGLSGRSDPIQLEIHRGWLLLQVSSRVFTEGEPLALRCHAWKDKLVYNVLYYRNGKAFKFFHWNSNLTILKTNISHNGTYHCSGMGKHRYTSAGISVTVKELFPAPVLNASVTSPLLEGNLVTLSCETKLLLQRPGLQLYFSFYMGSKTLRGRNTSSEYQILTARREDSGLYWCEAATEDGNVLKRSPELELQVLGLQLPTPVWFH


How the values were obtained:
Experiment in all cases: SPR
[1] = target: T1, FcgRIIaR
[2] = target: T2, FcgRIIb
[3] = target: T3, FcgRIa
[4] = target: T2, FcgRIIb
[5] = target: T3, FcgRIa
[6] = target: T1, FcgRIIaR

Row | Binder | Kd [1] [nM] | Kd [2] [nM] | Kd [3] [nM] | Kd [4] [nM] | Kd [5] [nM] | Kd [6] [nM]
1 | IL6R-BP257/IL6R-L (antibody) chain 1: QVQLQESGPGLVKPSETLSLTCAVSGHSISHDHAWSWVRQPPGEGLEWIGFISYSGITNYNPSLQGRVTISRDNSKNTLYLQMNSLRAEDTAVYYCARSLARTTAMDYWGEGTLVTVSSASTKGPEVFPLAPSSKSTSGGTAALGCLVKDYFPEPVTVSWNSGALTSGVHTFPAVLQSSGLYSLSSVVTVPSSSLGTQTYICNVNHKPSNTKVDKKVEPKSCDKTHTCPPCPAPDLLGDDSVFLFPPKPKDTLMISRTPEVTCVVVDVSDEDGEVKFNWYVDGVEVHNAKTKPREEQYNSTYRVVSVLTVLHQDWLNGKEYKCKVSNKALPRPIEKTISKAKGQPREPQVYTLPPSRDELTKNQVSLTCLVKGFYPSDIAVEWESNGQPENNYKTTPPVLDSDGSFFLYSKLTVDKSRWQQGNVFSCSVMHEALHNHYTQESLSLSP chain 2: not shown | 1300 | 430 | 0.31 | – | – | –
2 | IL6R-BP419/IL6R-L (antibody) chain 1: QVQLQESGPGLVKPSETLSLTCAVSGHSISHDHAWSWVRQPPGEGLEWIGFISYSGITNYNPSLQGRVTISRDNSKNTLYLQMNSLRAEDTAVYYCARSLARTTAMDYWGEGTLVTVSSASTKGPSVFPLAPSSKSTSGGTAALGCLVKDYFPEPVTVSWNSGALTSGVHTFPAVLQSSGLYSLSSVVTVPSSSLGTQTYICNVNHKPSNTKVDKKVEPKSCDKTHTCPPCPAPDLFGDDSVFLFPPKPKDTLMISRTPEVTCVVVDVSEEDGEVKFNWYVDGVEVHNAKTKPREEQDNSTYRVVSVLTVLHQDWLNGKEYKCKVSNKALPRPIEKTISKAKGQPREPQVYTLPPSRDELTKNQVSLTCLVKGFYPSDIAVEWESNGQPENNYKTTPPVLDSDGSFFLYSKLTVDKSRWQQGNVFSCSVMHEALHNHYTQESLSLSP chain 2: not shown | – | – | – | 26 | 40 | 830
3 | IL6R-BP208/IL6R-L (antibody) chain 1: QVQLQESGPGLVKPSETLSLTCAVSGHSISHDHAWSWVRQPPGEGLEWIGFISYSGITNYNPSLQGRVTISRDNSKNTLYLQMNSLRAEDTAVYYCARSLARTTAMDYWGEGTLVTVSSASTKGPSVFPLAPSSKSTSGGTAALGCLVKDYFPEPVTVSWNSGALTSGVHTFPAVLQSSGLYSLSSVVTVPSSSLGTQTYICNVNHKPSNTKVDKKVEPKSCDKTHTCPPCPAPDLLGDDSVFLFPPKPKDTLMISRTPEVTCVVVDVSDEDGEVKFNWYVDGVEVHNAKTKPREEQYNSTYRVVSVLTVLHQDWLNGKEYKCKVSNKALPRPIEKTISKAKGQPREPQVYTLPPSRDELTKNQVSLTCLVKGFYPSDIAVEWESNGQPENNYKTTPPVLDSDGSFFLYSKLTVDKSRWQQGNVFSCSVMHEALHNHYTQESLSLSP chain 2: not shown | 850 | – | – | – | – | –
4 | IL6R-BP408/IL6R-L (antibody) chain 1: QVQLQESGPGLVKPSETLSLTCAVSGHSISHDHAWSWVRQPPGEGLEWIGFISYSGITNYNPSLQGRVTISRDNSKNTLYLQMNSLRAEDTAVYYCARSLARTTAMDYWGEGTLVTVSSASTKGPSVFPLAPSSKSTSGGTAALGCLVKDYFPEPVTVSWNSGALTSGVHTFPAVLQSSGLYSLSSVVTVPSSSLGTQTYICNVNHKPSNTKVDKKVEPKSCDKTHTCPPCPAPDLQGDDSVFLFPPKPKDTLMISRTPEVTCVVVDVSEEDGEVKFNWYVDGVEVHNAKTKPREEQDNSTYRVVSVLTVLHQDWLNGKEYKCKVSNKALPRPIEKTISKAKGQPREPQVYTLPPSRDELTKNQVSLTCLVKGFYPSDIAVEWESNGQPENNYKTTPPVLDSDGSFFLYSKLTVDKSRWQQGNVFSCSVMHEALHNHYTQESLSLSP chain 2: not shown | – | – | – | 720 | 140 | 34000
5 | IL6R-BP256/IL6R-L (antibody) chain 1: QVQLQESGPGLVKPSETLSLTCAVSGHSISHDHAWSWVRQPPGEGLEWIGFISYSGITNYNPSLQGRVTISRDNSKNTLYLQMNSLRAEDTAVYYCARSLARTTAMDYWGEGTLVTVSSASTKGPDVFPLAPSSKSTSGGTAALGCLVKDYFPEPVTVSWNSGALTSGVHTFPAVLQSSGLYSLSSVVTVPSSSLGTQTYICNVNHKPSNTKVDKKVEPKSCDKTHTCPPCPAPDLLGDDSVFLFPPKPKDTLMISRTPEVTCVVVDVSDEDGEVKFNWYVDGVEVHNAKTKPREEQYNSTYRVVSVLTVLHQDWLNGKEYKCKVSNKALPRPIEKTISKAKGQPREPQVYTLPPSRDELTKNQVSLTCLVKGFYPSDIAVEWESNGQPENNYKTTPPVLDSDGSFFLYSKLTVDKSRWQQGNVFSCSVMHEALHNHYTQESLSLSP chain 2: not shown | 730 | 87 | 2 | – | – | –
6 | IL6R-BP264/IL6R-L (antibody) chain 1: QVQLQESGPGLVKPSETLSLTCAVSGHSISHDHAWSWVRQPPGEGLEWIGFISYSGITNYNPSLQGRVTISRDNSKNTLYLQMNSLRAEDTAVYYCARSLARTTAMDYWGEGTLVTVSSASTKGPSVFPLAPSSKSTSGGTAALGCLVKDYFPEPVTVSWNSGALTSGVHTFPAVLQSSGLYSLSSVVTVPSSSLGTQTYICNVNHKPSNTKVDKKVEPKSCDKTHTCPPCPAPDLLGDDSVFLFPPKPKDTLMISRTPEVTCVVVDVSEEDGEVKFNWYVDGVEVHNAKTKPREEQDNSTYRVVSVLTVLHQDWLNGKEYKCKVSNKALPRPIEKTISKAKGQPREPQVYTLPPSRDELTKNQVSLTCLVKGFYPSDIAVEWESNGQPENNYKTTPPVLDSDGSFFLYSKLTVDKSRWQQGNVFSCSVMHEALHNHYTQESLSLSP chain 2: not shown | – | – | – | – | 7.4 | –
7 | IL6R-BP260/IL6R-L (antibody) chain 1: QVQLQESGPGLVKPSETLSLTCAVSGHSISHDHAWSWVRQPPGEGLEWIGFISYSGITNYNPSLQGRVTISRDNSKNTLYLQMNSLRAEDTAVYYCARSLARTTAMDYWGEGTLVTVSSASTKGPEVFPLAPSSKSTSGGTAALGCLVKDYFPEPVTVSWNSGALTSGVHTFPAVLQSSGLYSLSSVVTVPSSSLGTQTYICNVNHKPSNTKVDKKVEPKSCDKTHTCPPCPAPDLLGDDSVFLFPPKPKDTLMISRTPEVTCVVVDVSDEDGEVKFNWYVDGVEVHNAKTKPREEQDNSTYRVVSVLTVLHQDWLNGKEYKCKVSNKALPRPIEKTISKAKGQPREPQVYTLPPSRDELTKNQVSLTCLVKGFYPSDIAVEWESNGQPENNYKTTPPVLDSDGSFFLYSKLTVDKSRWQQGNVFSCSVMHEALHNHYTQESLSLSP chain 2: not shown | – | 380 | 0.31 | – | – | –
8 | IL6R-AP029/IL6R-BP408/IL6R-L (antibody) chain 1: QVQLQESGPGLVKPSETLSLTCAVSGHSISHDHAWSWVRQPPGEGLEWIGFISYSGITNYNPSLQGRVTISRDNSKNTLYLQMNSLRAEDTAVYYCARSLARTTAMDYWGEGTLVTVSSASTKGPSVFPLAPSSKSTSGGTAALGCLVKDYFPEPVTVSWNSGALTSGVHTFPAVLQSSGLYSLSSVVTVPSSSLGTQTYICNVNHKPSNTKVDKKVEPKSCDKTHTCPPCPAPDLLGDDSVFLFPPKPKDTLMISRTPEVTCVVVDVSEEDGEVKFNWYVDGVEVHNAKTKPREEQDNSTYRVVSVLTVLHQDWLNGKEYKCKVSNKALPRPIEKTISKAKGQPREPQVYTLPPSRKELTKNQVSLTCLVKGFYPSDIAVEWESNGQPENNYKTTPPVLDSDGSFFLYSKLTVDKSRWQQGNVFSCSVMHEALHNRYTQKSLSLSP chain 2: QVQLQESGPGLVKPSETLSLTCAVSGHSISHDHAWSWVRQPPGEGLEWIGFISYSGITNYNPSLQGRVTISRDNSKNTLYLQMNSLRAEDTAVYYCARSLARTTAMDYWGEGTLVTVSSASTKGPSVFPLAPSSKSTSGGTAALGCLVKDYFPEPVTVSWNSGALTSGVHTFPAVLQSSGLYSLSSVVTVPSSSLGTQTYICNVNHKPSNTKVDKKVEPKSCDKTHTCPPCPAPDLQGDDSVFLFPPKPKDTLMISRTPEVTCVVVDVSEEDGEVKFNWYVDGVEVHNAKTKPREEQDNSTYRVVSVLTVLHQDWLNGKEYKCKVSNKALPRPIEKTISKAKGQPREPQVYTLPPSRDELTKNQVSLTCLVKGFYPSDIAVEWESNGQPENNYKTTPPVLDSDGSFFLYSKLTVDKSRWQQGNVFSCSVMHEALHNHYTQESLSLSP chain 3: not shown | – | – | – | 26 | 20 | 860
9 | IL6R-BP259/IL6R-L (antibody) chain 1: QVQLQESGPGLVKPSETLSLTCAVSGHSISHDHAWSWVRQPPGEGLEWIGFISYSGITNYNPSLQGRVTISRDNSKNTLYLQMNSLRAEDTAVYYCARSLARTTAMDYWGEGTLVTVSSASTKGPDVFPLAPSSKSTSGGTAALGCLVKDYFPEPVTVSWNSGALTSGVHTFPAVLQSSGLYSLSSVVTVPSSSLGTQTYICNVNHKPSNTKVDKKVEPKSCDKTHTCPPCPAPDLLGDDSVFLFPPKPKDTLMISRTPEVTCVVVDVSDEDGEVKFNWYVDGVEVHNAKTKPREEQDNSTYRVVSVLTVLHQDWLNGKEYKCKVSNKALPRPIEKTISKAKGQPREPQVYTLPPSRDELTKNQVSLTCLVKGFYPSDIAVEWESNGQPENNYKTTPPVLDSDGSFFLYSKLTVDKSRWQQGNVFSCSVMHEALHNHYTQESLSLSP chain 2: not shown | 860 | 110 | 3.1 | – | – | –
